According to the supplement of paper PMC11246515:
± gives the standard deviation of the averaged measurements.

Experiment: total protein half-life in vivo (active degradation + dilution); higher = more stable protein
[1] = E. coli NCM3722 delta-clpP delta-lon delta-hslV, growth: N-lim chemostat, doubling time 6 h
[2] = E. coli NCM3722 delta-clpP, growth: N-lim chemostat, doubling time 6 h
[3] = E. coli NCM3722 delta-hslV, growth: N-lim chemostat, doubling time 6 h
[4] = E. coli NCM3722 delta-smpB, growth: N-lim chemostat, doubling time 6 h
[5] = wild type E. coli NCM3722, growth: C-lim chemostat, doubling time 3 h
[6] = wild type E. coli NCM3722, growth: C-lim chemostat, doubling time 12 h
[7] = wild type E. coli NCM3722, growth: N-lim chemostat, doubling time 6 h
[8] = wild type E. coli NCM3722, growth: N-lim chemostat, doubling time 12 h
[9] = wild type E. coli NCM3722, growth: P-lim chemostat, doubling time 6 h
[10] = wild type E. coli NCM3722, growth: P-lim chemostat, doubling time 12 h
[11] = E. coli NCM3722 delta-lon, growth: N-lim chemostat, doubling time 6 h
[12] = wild type E. coli NCM3722, growth: C-lim chemostat, doubling time 6 h

Sequence	total protein half-life in vivo [1] [h]	total protein half-life in vivo [2] [h]	total protein half-life in vivo [3] [h]	total protein half-life in vivo [4] [h]	total protein half-life in vivo [5] [h]	total protein half-life in vivo [6] [h]	total protein half-life in vivo [7] [h]	total protein half-life in vivo [8] [h]	total protein half-life in vivo [9] [h]	total protein half-life in vivo [10] [h]	total protein half-life in vivo [11] [h]	total protein half-life in vivo [12] [h]
MRLGTFHKKKRFYINKIKINFLSFLFRNKINNQITDPAQVKSCLIIHDNNKLGDLIVLSSIYRELYSKGVKITLLTNRKGGEFLSNNKNIFEFCIKESTGFLEMLTLCKHLRDLQFDIVLDPFETMPSFKHSLILSSLKDSYILGFDHWYKRYYSFYHPHDECLKEHMSTRAIEILKHIYGEGKFSTNYDLHLPVDVEDKIKEFIGDTRIVIINPLGAKKICRLTFEQIKVIYQEVKTHFENYRIIFTGLPQDLLTIPILEIETLPFDEFIYTVALTKYSDFVISVDTALVHIAAAYHKPTLAFYPNSRTPEYPSHLIWSPNHHKSIQIVSPTYTVKDIDTETLTNSVKRLSCIDKK	5.5 ± 0.61	6.56 ± 1.5	5.9 ± 0.57	5.44 ± 0.1	2.96 ± 0.088	11.5 ± 0.51	5.67 ± 0.47	12.8 ± 1.3	5.23 ± 0.19	12.2 ± 0.22	–	–
MMQPSIKPADEHSAGDIIARIGSLTRMLRDSLRELGLDQAIAEAAEAIPDARDRLYYVVQMTAQAAERALNSVEASQPHQDQMEKSAKALTQRWDDWFADPIDLADARELVTDTRQFLADVPAHTSFTNAQLLEIMMAQDFQDLTGQVIKRMMDVIQEIERQLLMVLLENIPEQESRPKRENQSLLNGPQVDTSKAGVVASQDQVDDLLDSLGF [P0A9H9]	–	–	–	–	–	2.6	–	–	–	–	–	–
MNLSTKQKQHLKGLAHPLKPVVLLGSNGLTEGVLAEIEQALEHHELIKVKIATEDRETKTLIVEAIVRETGACNVQVIGKTLVLYRPTKERKISLPR [P0AGK4]	7 ± 0.84	5.91 ± 0.59	6.12 ± 0.24	5.7 ± 0.41	3.11 ± 0.53	9.46 ± 1.2	4.83 ± 0.25	10.8 ± 2.1	4.88 ± 1.1	12.6 ± 3	6.47 ± 0.075	5.73 ± 0.12
MMPQSLPDTTTPKRRFRWPTGMPQLVALLLVLLVDSLVAPHFWQVVLQDGRLFGSPIDILNRAAPVALLAIGMTLVIATGGIDLSVGAVMAIAGATTAAMTVAGFSLPIVLLSALGTGILAGLWNGILVAILKIQPFVATLILMVAGRGVAQLITAGQIVTFNSPDLSWFGSGSLLFLPTPVIIAVLTLILFWLLTRKTALGMFIEAVGINIRAAKNAGVNTRIIVMLTYVLSGLCAAIAGIIVAADIRGADANNAGLWLELDAILAVVIGGGSLMGGRFNLLLSVVGALIIQGMNTGILLSGFPPEMNQVVKAVVVLCVLIVQSQRFISLIKGVRSRDKT	–	–	–	–	–	8.92	–	–	–	–	–	–
MATAKKITIHDVALAAGVSVSTVSLVLSGKGRISTATGERVNAAIEELGFVRNRQASALRGGQSGVIGLIVRDLSAPFYAELTAGLTEALEAQGRMVFLLHGGKDGEQLAQRFSLLLNQGVDGVVIAGAAGSSDDLRRMAEEKAIPVIFASRASYLDDVDTVRPDNMQAAQLLTEHLIRNGHQRIAWLGGQSSSLTRAERVGGYCATLLKFGLPFHSDWVLECTSSQKQAAEAITALLRHNPTISAVVCYNETIAMGAWFGLLKAGRQSGESGVDRYFEQQVSLAAFTDATPTTLDDIPVTWASTPARELGITLADRMMQKITHEETHSRNLIIPARLIAAK	6.29 ± 0.064	6.58 ± 1.8	4.56	4.45 ± 0.36	2.7 ± 0.15	8.757 ± 0.013	4.64 ± 0.33	8.39 ± 2.1	4.36 ± 0.092	9.01 ± 0.16	5.27 ± 0.39	5.25 ± 0.078
MLILISPAKTLDYQSPLTTTRYTLPELLDNSQQLIHEARKLTPPQISTLMRISDKLAGINAARFHDWQPDFTPANARQAILAFKGDVYTGLQAETFSEDDFDFAQQHLRMLSGLYGVLRPLDLMQPYRLEMGIRLENARGKDLYQFWGDIITNKLNEALAAQGDNVVINLASDEYFKSVKPKKLNAEIIKPVFLDEKNGKFKIISFYAKKARGLMSRFIIENRLTKPEQLTGFNSEGYFFDEDSSSNGELVFKRYEQR [P0A8I3]	2.9 ± 0.42	2.57 ± 0.31	2.665 ± 0.025	2.63 ± 0.37	2.66 ± 0.069	6.32 ± 0.39	2.53 ± 0.26	3.4738 ± 0.0021	3.39 ± 0.057	6.11 ± 0.75	3.07 ± 0.18	3.57 ± 0.5
MTPILNHYFARINWSGAAAVNIDTLRALHLKHNCTIPFENLDVLLPREIQLDNQSPEEKLVIARRGGYCFEQNGVFERVLRELGFNVRSLLGRVVLSNPPALPPRTHRLLLVELEEEKWIADVGFGGQTLTAPIRLVSDLVQTTPHGEYRLLQEGDDWVLQFNHHQHWQSMYRFDLCEQQQSDYVMGNFWSAHWPQSHFRHHLLMCRHLPDGGKLTLTNFHFTHYENGHAVEQRNLPDVASLYAVMQEQFGLGVDDAKHGFTVDELALVMAAFDTHPEAGK	–	2.34 ± 0.39	3.1	2.15 ± 0.18	–	4.65	3.11 ± 0.3	5.26 ± 0.66	–	3.88	4.618 ± 0.018	2.81
MRYDKELTENEMIRQKILQQLLEWIECNLEHPISIEDIAQKSGYSRRNIQLLFRNFMHVPLGEYIRKRRLCRAAILVRLTAKSMLDIALSLHFDSQQSFSREFKKLFGCSPREYRHRDYWDLANIFPSFLIRQQQKTECRLINFPETPIFGNSFKYDIEVSNKSPDEEVKLRRHHLARCMKNFKTDIYFVSTFEPSTKSVDLLTVETFAGTVCEYADMPKEWTTTRGLYDPTHVIWTQA	> 8	–	–	–	–	–	–	–	–	–	–	–
MNDSEFHRLADQLWLTIEERLDDWDGDSDIDCEINGGVLTITFENGSKIIINRQEPLHQVWLATKQGGYHFDLKGDEWICDRSGETFWDLLEQAATQQAGETVSFR	5.94 ± 0.86	6.07	5.73 ± 0.14	4.57 ± 1.3	2.95 ± 0.78	9.5	5.34 ± 0.45	9.68 ± 0.16	5.67 ± 0.12	11 ± 0.23	5.77 ± 0.51	5.61 ± 1.6
